Experiments:
[1] = test system: […]{LYS(N3)} peptide-linker conjugate, PEG4 linker (Table 6 entry 11)
[2] = test system: […]{LYS(N3)} peptide-linker conjugate, oligo linker (Table 6 entry 10)
[3] = test system: […]{LYS(N3)} peptide-linker conjugate, oligo linker (Table 6 entry 8)
[4] = test system: […]{LYS(N3)} peptide-linker conjugate, oligo linker (Table 6 entry 9)

For Y. pestis proline iminopeptidase, the “Cleaved by PIP” value [1] was “Yes”, the “Cleaved by PIP” value [2] was “No” and the “Cleaved by PIP” value [3] was “Yes”. For the same substance, the “Cleaved by PIP” value [4] was “Yes”.

From patent US20250283886
